Here are results for one protein from US20240425618A1 (YOUCARE PHARMACEUTICAL GROUP, published 2024).

This data set addresses polypeptide N52 simulating a target sequence (SARS-CoV-2, N-terminal acetyl (Ac); C-terminal amide (NH2)).

B1: lipopeptide IPB24 (peptide)
peptide: SVVNIQKEIDRLNEVAKNLNESLIDLQELGKYEQYIKK
modifications: N-terminal acetyl (Ac); flexible linker PEG4 (from Fmoc-NH-PEG4-CH2CH2COOH) between the antiviral polypeptide sequence and the C-terminal K; cholesteryl hemisuccinate on the C-terminal K; C-terminal amide (NH2)
As to B1, the “Tm of the complex” value was 90 °C.
